Results on one molecule are retold here after paper PMC6070508, “Structural basis for selective inhibition of immunoglobulin E-receptor interactions by an anti-IgE antibody” (Scientific Reports, 2018).

“And” between values parts separate entries of the source, which are not always exact repeats. Identical values can stand only once.

The target in one experiment is T1, 8D6 Fab.
T1 construct: In SPR it was amine-coupled to a CM5 chip or injected as analyte; also called recombinant 8D6 Fab; anti-IgE antibody Fab (8D6)
The experiment can be described thus: SPR; Biacore T200; 8D6 Fab amine-coupled to a CM5 chip; His-tagged IgE-Fc injected at 100 nM to 190 pM (2-fold dilutions) in HBS-P (10 mM HEPES pH 7.4, 150 mM NaCl, 0.005% surfactant P20), 30 uL/min; constants from low and intermediate concentrations. The following applies: both partners purified.

Another experiment concerns the target T2, derCD23 (human).
T2 construct: human CD23 (FcεRII), soluble monomeric fragment called derCD23; also called soluble, monomeric CD23 construct; soluble fragment of CD23
T2 sequence (P06734 whole entry, looked up): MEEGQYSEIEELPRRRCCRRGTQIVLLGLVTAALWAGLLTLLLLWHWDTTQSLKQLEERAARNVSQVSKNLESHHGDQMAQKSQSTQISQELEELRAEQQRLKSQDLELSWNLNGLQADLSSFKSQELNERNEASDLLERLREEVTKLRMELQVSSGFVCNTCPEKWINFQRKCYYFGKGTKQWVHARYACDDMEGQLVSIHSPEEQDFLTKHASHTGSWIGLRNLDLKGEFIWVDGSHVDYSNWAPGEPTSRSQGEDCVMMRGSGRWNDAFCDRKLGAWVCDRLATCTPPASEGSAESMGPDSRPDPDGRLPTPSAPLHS
The experiment can be described thus: SPR; N-terminally His-tagged IgE-Fc captured with an anti-His-tag antibody (Biacore His Capture Kit); derCD23 injected at 10 to 0.156 uM; HBS-P with 5 mM CaCl2, 25 °C. The following applies: both partners purified.

T1 sequence (heavy, as listed by the source, chain 1 of 2): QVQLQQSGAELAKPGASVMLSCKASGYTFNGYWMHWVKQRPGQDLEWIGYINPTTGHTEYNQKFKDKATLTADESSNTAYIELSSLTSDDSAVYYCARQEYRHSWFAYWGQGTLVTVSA
T1 sequence (light, as listed by the source, chain 2 of 2): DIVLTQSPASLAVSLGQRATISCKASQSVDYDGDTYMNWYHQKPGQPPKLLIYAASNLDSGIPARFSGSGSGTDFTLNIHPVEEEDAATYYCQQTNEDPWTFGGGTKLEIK

B1: His-tagged IgE-Fc (domain or fragment)
chain: VASRDFTPPTVKILQSSCDGGGHFPPTIQLLCLVSGYTPGTIQITWLEDGQVMDVDLSTASTTQEGELASTQSELTLSQKHWLSDRTYTCQVTYQGHTFEDSTKKCADSNPRGVSAYLSRPSPFDLFIRKSPTITCLVVDLAPSKGTVQLTWSRASGKPVNHSTRKEEKQRNGTLTVTSTLPVGTRDWIEGETYQCRVTHPHLPRALMRSTTKTSGPRAAPEVYAFATPEWPGSRDKRTLACLIQNFMPEDISVQWLHNEVQLPDARHSTTQPRKTKGSGFFVFSRLEVTRAEWEQKDEFICRAVHEAASPSQTVQRAVSVNPGK
modifications: disulfide-linked homodimer; N-glycosylated at Asn394 (high-mannose); N-terminal 6xHis/Xpress tag omitted; C225A, N265Q and N371Q taken as already in the deposited entity; C-terminal end taken from …
As a reminder, the Kd is the concentration at which binding is half-saturated. A low value points to a tighter complex. For orientation: koff means the rate constant with which the complex falls apart. The term kon denotes the second-order rate constant of association. A higher kon goes with fast association. Turning to B1, in the experiment with 8D6 Fab, the equilibrium dissociation constant (Kd) is approximately 0.02 nM, the koff was found to be 8e-05 s⁻¹ and the association rate constant (kon) came out at 5e+06 M⁻¹ s⁻¹. In addition, in the experiment with derCD23, the Kd is 1800 nM and 1700 nM and 1600 nM.
